Receptor occupancy data for one substance are collected here from patent EP3919077A1.

The target of the assay is human FcγRIIB (CD32B) on peripheral B cells (human) (UniProt P31994). The experiment in a line: in vivo receptor occupancy on peripheral B cells of human subjects after infusion of 100 mg BI-1206 (preliminary clinical data).
UniProt P31994, sequence (P31994 43-310): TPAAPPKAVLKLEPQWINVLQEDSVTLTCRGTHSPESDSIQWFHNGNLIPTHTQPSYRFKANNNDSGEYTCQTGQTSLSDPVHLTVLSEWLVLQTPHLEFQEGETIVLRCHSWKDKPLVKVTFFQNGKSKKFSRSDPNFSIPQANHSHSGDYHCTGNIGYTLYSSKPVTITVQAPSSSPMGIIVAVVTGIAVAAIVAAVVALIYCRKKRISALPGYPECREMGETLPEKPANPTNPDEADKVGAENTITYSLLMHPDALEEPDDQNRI

With BI-1206 (antibody), the receptor occupancy amounted to 100%.
